Experimental findings from patent publication US20140087995A1 (published 2014) are described below.

T1: human calcitonin receptor (human, UniProt P30988 25-474)
T1 construct: whole, on cells; also called hCTR; hCT
T1 sequence (looked up): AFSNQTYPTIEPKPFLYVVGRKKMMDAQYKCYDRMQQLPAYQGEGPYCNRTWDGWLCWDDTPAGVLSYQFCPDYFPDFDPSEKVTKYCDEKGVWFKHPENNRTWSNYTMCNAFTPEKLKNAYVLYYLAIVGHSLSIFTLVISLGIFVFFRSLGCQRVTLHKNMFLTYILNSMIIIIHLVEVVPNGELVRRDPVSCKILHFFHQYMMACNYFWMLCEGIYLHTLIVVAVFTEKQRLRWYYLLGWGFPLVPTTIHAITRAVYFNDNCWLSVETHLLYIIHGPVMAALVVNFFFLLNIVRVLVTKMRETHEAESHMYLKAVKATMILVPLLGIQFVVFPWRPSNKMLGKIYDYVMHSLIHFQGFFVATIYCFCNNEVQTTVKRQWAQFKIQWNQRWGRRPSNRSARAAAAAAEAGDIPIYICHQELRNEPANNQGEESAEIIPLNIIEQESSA

B1: N^α1-[(4S)-4-carboxy-4-(19-carboxynonadecanoylamino)butanoyl]-[Asp14,Arg17,Pro21,Pro27,Pro37]-h-amylin (peptide)
peptide: {C20 diacid-γGlu}-KCNTATCATQRLADFLRHSSPNFGAIPSSTNVGSNTP-NH2
modifications: disulfide 2-7
SMILES: CC[C@H](C)[C@H](NC(=O)[C@H](C)NC(=O)CNC(=O)[C@H](Cc1ccccc1)NC(=O)[C@H](CC(N)=O)NC(=O)[C@@H]1CCCN1C(=O)[C@H](CO)NC(=O)[C@H](CO)NC(=O)[C@H](Cc1c[nH]cn1)NC(=O)[C@H](CCCNC(=N)N)NC(=O)[C@H](CC(C)C)NC(=O)[C@H](Cc1ccccc1)NC(=O)[C@H](CC(=O)O)NC(=O)[C@H](C)NC(=O)[C@H](CC(C)C)NC(=O)[C@H](CCCNC(=N)N)NC(=O)[C@H](CCC(N)=O)NC(=O)[C@@H](NC(=O)[C@H](C)NC(=O)[C@@H]1CSSC[C@H](NC(=O)[C@H](CCCCN)NC(=O)CC[C@H](NC(=O)CCCCCCCCCCCCCCCCCCC(=O)O)C(=O)O)C(=O)N[C@@H](CC(N)=O)C(=O)N[C@@H]([C@@H](C)O)C(=O)N[C@@H](C)C(=O)N[C@@H]([C@@H](C)O)C(=O)N1)[C@@H](C)O)C(=O)N1CCC[C@H]1C(=O)N[C@@H](CO)C(=O)N[C@@H](CO)C(=O)N[C@H](C(=O)N[C@@H](CC(N)=O)C(=O)N[C@H](C(=O)NCC(=O)N[C@@H](CO)C(=O)N[C@@H](CC(N)=O)C(=O)N[C@H](C(=O)N1CCC[C@H]1C(N)=O)[C@@H](C)O)C(C)C)[C@@H](C)O
notes: also called compound 10
B2: N^α1-[(4S)-4-carboxy-4-(19-carboxynonadecanoylamino)butanoyl]-[Glu14,Arg17,Pro21,Pro25,Pro28,Pro29,Pro37]-h-amylin (peptide)
peptide: {C20 diacid-γGlu}-KCNTATCATQRLAEFLRHSSPNFGPILPPTNVGSNTP-NH2
modifications: disulfide 2-7
SMILES: CC[C@H](C)[C@H](NC(=O)[C@@H]1CCCN1C(=O)CNC(=O)[C@H](Cc1ccccc1)NC(=O)[C@H](CC(N)=O)NC(=O)[C@@H]1CCCN1C(=O)[C@H](CO)NC(=O)[C@H](CO)NC(=O)[C@H](Cc1c[nH]cn1)NC(=O)[C@H](CCCNC(=N)N)NC(=O)[C@H](CC(C)C)NC(=O)[C@H](Cc1ccccc1)NC(=O)[C@H](CCC(=O)O)NC(=O)[C@H](C)NC(=O)[C@H](CC(C)C)NC(=O)[C@H](CCCNC(=N)N)NC(=O)[C@H](CCC(N)=O)NC(=O)[C@@H](NC(=O)[C@H](C)NC(=O)[C@@H]1CSSC[C@H](NC(=O)[C@H](CCCCN)NC(=O)CC[C@H](NC(=O)CCCCCCCCCCCCCCCCCCC(=O)O)C(=O)O)C(=O)N[C@@H](CC(N)=O)C(=O)N[C@@H]([C@@H](C)O)C(=O)N[C@@H](C)C(=O)N[C@@H]([C@@H](C)O)C(=O)N1)[C@@H](C)O)C(=O)N[C@@H](CC(C)C)C(=O)N1CCC[C@H]1C(=O)N1CCC[C@H]1C(=O)N[C@H](C(=O)N[C@@H](CC(N)=O)C(=O)N[C@H](C(=O)NCC(=O)N[C@@H](CO)C(=O)N[C@@H](CC(N)=O)C(=O)N[C@H](C(=O)N1CCC[C@H]1C(N)=O)[C@@H](C)O)C(C)C)[C@@H](C)O
notes: also called compound 4
B3: N^α1-[(4S)-4-carboxy-4-(19-carboxynonadecanoylamino)butanoyl]-[Glu14,Arg17,Pro21,Pro26,Pro37]-h-amylin (peptide)
peptide: {C20 diacid-γGlu}-KCNTATCATQRLAEFLRHSSPNFGAPLSSTNVGSNTP-NH2
modifications: disulfide 2-7
SMILES: CC(C)C[C@H](NC(=O)[C@H](CCCNC(=N)N)NC(=O)[C@H](CCC(N)=O)NC(=O)[C@@H](NC(=O)[C@H](C)NC(=O)[C@@H]1CSSC[C@H](NC(=O)[C@H](CCCCN)NC(=O)CC[C@H](NC(=O)CCCCCCCCCCCCCCCCCCC(=O)O)C(=O)O)C(=O)N[C@@H](CC(N)=O)C(=O)N[C@@H]([C@@H](C)O)C(=O)N[C@@H](C)C(=O)N[C@@H]([C@@H](C)O)C(=O)N1)[C@@H](C)O)C(=O)N[C@@H](C)C(=O)N[C@@H](CCC(=O)O)C(=O)N[C@@H](Cc1ccccc1)C(=O)N[C@@H](CC(C)C)C(=O)N[C@@H](CCCNC(=N)N)C(=O)N[C@@H](Cc1c[nH]cn1)C(=O)N[C@@H](CO)C(=O)N[C@@H](CO)C(=O)N1CCC[C@H]1C(=O)N[C@@H](CC(N)=O)C(=O)N[C@@H](Cc1ccccc1)C(=O)NCC(=O)N[C@@H](C)C(=O)N1CCC[C@H]1C(=O)N[C@@H](CC(C)C)C(=O)N[C@@H](CO)C(=O)N[C@@H](CO)C(=O)N[C@H](C(=O)N[C@@H](CC(N)=O)C(=O)N[C@H](C(=O)NCC(=O)N[C@@H](CO)C(=O)N[C@@H](CC(N)=O)C(=O)N[C@H](C(=O)N1CCC[C@H]1C(N)=O)[C@@H](C)O)C(C)C)[C@@H](C)O
notes: also called compound 5
B4: N^α1-[(4S)-4-carboxy-4-(19-carboxynonadecanoylamino)butanoyl]-[Glu14,Arg17,Pro21,Pro25,Pro28,Pro29]-h-amylin (peptide)
peptide: {C20 diacid-γGlu}-KCNTATCATQRLAEFLRHSSPNFGPILPPTNVGSNTY-NH2
modifications: disulfide 2-7
SMILES: CC[C@H](C)[C@H](NC(=O)[C@@H]1CCCN1C(=O)CNC(=O)[C@H](Cc1ccccc1)NC(=O)[C@H](CC(N)=O)NC(=O)[C@@H]1CCCN1C(=O)[C@H](CO)NC(=O)[C@H](CO)NC(=O)[C@H](Cc1c[nH]cn1)NC(=O)[C@H](CCCNC(=N)N)NC(=O)[C@H](CC(C)C)NC(=O)[C@H](Cc1ccccc1)NC(=O)[C@H](CCC(=O)O)NC(=O)[C@H](C)NC(=O)[C@H](CC(C)C)NC(=O)[C@H](CCCNC(=N)N)NC(=O)[C@H](CCC(N)=O)NC(=O)[C@@H](NC(=O)[C@H](C)NC(=O)[C@@H]1CSSC[C@H](NC(=O)[C@H](CCCCN)NC(=O)CC[C@H](NC(=O)CCCCCCCCCCCCCCCCCCC(=O)O)C(=O)O)C(=O)N[C@@H](CC(N)=O)C(=O)N[C@@H]([C@@H](C)O)C(=O)N[C@@H](C)C(=O)N[C@@H]([C@@H](C)O)C(=O)N1)[C@@H](C)O)C(=O)N[C@@H](CC(C)C)C(=O)N1CCC[C@H]1C(=O)N1CCC[C@H]1C(=O)N[C@H](C(=O)N[C@@H](CC(N)=O)C(=O)N[C@H](C(=O)NCC(=O)N[C@@H](CO)C(=O)N[C@@H](CC(N)=O)C(=O)N[C@H](C(=O)N[C@@H](Cc1ccc(O)cc1)C(N)=O)[C@@H](C)O)C(C)C)[C@@H](C)O
notes: also called compound 6

Numbered stars: 1 amine (or outer) side, 2 acyl side, 3 side chain; on linkers, the order of the positions; unused ones are H or OH. Bridge positions count the residues as written; N and C are the ends. * marks the point of attachment. C20 diacid = O=C(O)CCCCCCCCCCCCCCCCCCC(=O)*; γGlu = O=C(O)[C@H](CCC(=O)[*:2])N[*:1]

The target in one experiment is T1, human calcitonin receptor. Kind of experiment: ratio of IC50 at hCTR to IC50 at the human amylin receptor (reference). The method, then: The resulting pellet was resuspended, homogenized and centrifuged (20.000 rpm, 15 min) in a buffer containing 20 mM Na-HEPES and 0.1 mM EDTA (pH 7.4, buffer 2). The resulting pellet was resuspended in buffer 2 and protein concentration was measured (BCA protein Assay, Pierce). The homogenate was kept cold during the whole procedure. The membranes were kept at −80° C. until use. The assay was performed in a 384 well Optiplate (PerkinElmer) in a total volume of 40 ul. Membranes were mixed with SPA beads. Final concentration of membranes 35 ng/μL final and SPA beads was 0.05 mg/well. Test-compounds were dissolved in DMSO and further diluted in assay buffer (50 mM Hepes, pH 7.4, 1 mM CaCl2, 5 mM MgCl₂, 0.1% OA and 0.02% Tween20). […] The final mixture was incubated with shaking at 400 rpm for 120 min at 25° C. prior to centrifugation (1500 rpm, 10 min). Samples were analyzed on TopCounter™ (Packard). The IC₅₀ was calculated using (one site binding competition analysis) GraphPad Prism5 as a measure of receptor affinity.
Membranes were prepared in the following way; the cells were rinsed with PBS and incubated with Versene for approximately 5 min before harvesting. The cells were flushed with PBS and the cell-suspension was centrifuged for 5 min at 1000 rpm. Cells were homogenized (Ultrathurrax) in a buffer containing 20 mM Na-HEPES and 10 mM EDTA (pH 7.4) and centrifuged at 20.000 rpm for 15 min. The resulting pellet was resuspended, homogenized and centrifuged (20.000 rpm, 15 min) in a buffer containing 20 mM Na-HEPES and 0.1 mM EDTA (pH 7.4, buffer 2). The resulting pellet was resuspended in buffer 2 and protein concentration was measured (BCA protein Assay, Pierce). The homogenate was kept cold during the whole procedure. The membranes were kept at −80° C. until use. Assay was performed in a 384 well Optiplate (PerkinElmer) in a total volume of 40 ul. Membranes were mixed with SPA beads.
As to B1, the “Ratio hCT/hAmylin binding” value was determined as 1.2.
Same read-out and setting: to B2 belongs 2.1.
On the same count and under the same terms, for B3 the value was 1.4; for B4, 20.

The target in another experiment is T1, human calcitonin receptor. Kind of experiment: SPA competition binding, membranes with human calcitonin receptor, displacement of 125I-calcitonin (Assay VII). As for the experimental part: Membranes were prepared in the following way; the cells were rinsed with PBS and incubated with Versene for approximately 5 min before harvesting. The cells were flushed with PBS and the cell-suspension was centrifuged for 5 min at 1000 rpm. Cells were homogenized (Ultrathurrax) in a buffer containing 20 mM Na-HEPES and 10 mM EDTA (pH 7.4) and centrifuged at 20.000 rpm for 15 min. The resulting pellet was resuspended, homogenized and centrifuged (20.000 rpm, 15 min) in a buffer containing 20 mM Na-HEPES and 0.1 mM EDTA (pH 7.4, buffer 2). The resulting pellet was resuspended in buffer 2 and protein concentration was measured (BCA protein Assay, Pierce). The homogenate was kept cold during the whole procedure. The membranes were kept at −80° C. until use. Assay was performed in a 384 well Optiplate (PerkinElmer) in a total volume of 40 ul. Membranes were mixed with SPA beads. Final concentration of membranes 35 ng/μL final and Final concentration of SPA beads was 0.05 mg/well. Test-compounds were dissolved in DMSO and further diluted in assay buffer (50 mM Hepes, pH 7.4, 1 mM CaCl2, 5 mM MgCl₂, 0.1% OA and 0.02% Tween20). […] The final mixture was incubated for 120 min with shaking at 400 rpm at 25° C. prior to centrifugation (1500 rpm, 10 min). Samples were analyzed on TopCounter™ (Packard). The […] was calculated using (one site binding competition analysis) GraphPad Prism5 as a measure of receptor affinity.
B1: the IC50 – broadly, the concentration at which inhibition is half-maximal – turned out to be 0.099 nM.
Take B2: the half-maximal inhibitory concentration (IC50) was found to be 0.688 nM.
Still for that read-out and setting: for B3 the value was 0.537 nM.
Same read-out and setting: for B4 the value was 19.9 nM.
